From patent publication US20150175705A1

T1: human prolactin receptor (PRLR) expressed on cells (human) (UniProt P16471)
T1 sequence: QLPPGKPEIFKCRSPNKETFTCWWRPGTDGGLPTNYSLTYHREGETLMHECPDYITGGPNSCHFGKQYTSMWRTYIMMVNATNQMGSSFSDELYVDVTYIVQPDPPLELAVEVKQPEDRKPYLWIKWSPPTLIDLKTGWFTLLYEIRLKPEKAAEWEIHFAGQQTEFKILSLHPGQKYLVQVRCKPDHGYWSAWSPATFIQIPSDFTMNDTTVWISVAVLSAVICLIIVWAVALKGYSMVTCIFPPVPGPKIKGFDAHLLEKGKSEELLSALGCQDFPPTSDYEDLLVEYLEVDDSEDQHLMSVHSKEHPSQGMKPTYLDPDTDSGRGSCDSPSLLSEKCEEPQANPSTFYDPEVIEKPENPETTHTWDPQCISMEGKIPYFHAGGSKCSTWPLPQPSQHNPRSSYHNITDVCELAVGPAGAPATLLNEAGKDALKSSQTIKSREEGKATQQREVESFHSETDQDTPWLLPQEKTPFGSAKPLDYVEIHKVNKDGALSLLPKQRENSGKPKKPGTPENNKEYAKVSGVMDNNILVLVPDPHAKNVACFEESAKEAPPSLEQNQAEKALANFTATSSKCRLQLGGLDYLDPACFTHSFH


How the values were obtained:
[1] = molecular target: T1, human prolactin receptor (PRLR) expressed on cells (human); assay: flow cytometry on CHO-K1 cells expressing human PRLR (clone 1G5)
[2] = molecular target: T1, human prolactin receptor (PRLR) expressed on cells (human); assay: cell-based or functional assay

Row | MFI [1] | pERK1/2 inhibition IC50 [2] | Molecule
1 | 33.8 MFI | – | mAb 1167, control murine anti-PRLR monoclonal antibody (R&D Systems, catalog # MAB 1167)
2 | – | 0.11 | XHA.06.983 (antibody, from another filing, V domains shown) VH: DVQLVESGGGLVQPGGSRKLSCAASGFAFSSFGMQWVRQAPEKGLEWVAYISSGSSTIYYADTVKGRFTISRDNPKNTLFLQMTSLRSEDTAMYYCVRSGRDYWGQGTSVTVSS VL: SIVMTQTPKFLLVSAGDRVTITCKASQGVSNDVAWFQQKPGQSPKLLIYSASTRYTGVPDRLTGSGYGTDFTFTINTVQAEDLAVYFCQQDYTSPTFGGGTKLEIKR
